Reference: article PMC2685181 (The Journal of neuroscience : the official journal of the …, 2008)
Where no end group is shown, it is not given here.

B1: GST_I-II loop with five alanines inserted between F376 and L377 (domain or fragment, rabbit, UniProt P27884 369-413, looked up)
chain: RVENRRAFAAAAALKLRRQQQIERELNGYMEWISKAEEVILAEDETDVEQ
B2: GST_I-II loop with five glycines inserted between F376 and L377 (domain or fragment, rabbit, UniProt P27884 369-413, looked up)
chain: RVENRRAFGGGGGLKLRRQQQIERELNGYMEWISKAEEVILAEDETDVEQ
modifications: not fully specified
B3: GST_I-II loop with seven alanines inserted between F376 and L377 (domain or fragment, rabbit, UniProt P27884 369-413, looked up)
chain: RVENRRAFAAAAAAALKLRRQQQIERELNGYMEWISKAEEVILAEDETDVEQ
B4: GST_I-II loop with seven glycines inserted between F376 and L377 (domain or fragment, rabbit, UniProt P27884 369-413, looked up)
chain: RVENRRAFGGGGGGGLKLRRQQQIERELNGYMEWISKAEEVILAEDETDVEQ
modifications: not fully specified

The binders below were run against WT β1b_core (core region of Ca2+ channel β1b subunit, G58-T418) (human, UniProt Q02641-1 58-418) (assay: pull-down).
WT β1b_core (core region of Ca2+ channel β1b subunit, G58-T418), sequence (Q02641 58-418): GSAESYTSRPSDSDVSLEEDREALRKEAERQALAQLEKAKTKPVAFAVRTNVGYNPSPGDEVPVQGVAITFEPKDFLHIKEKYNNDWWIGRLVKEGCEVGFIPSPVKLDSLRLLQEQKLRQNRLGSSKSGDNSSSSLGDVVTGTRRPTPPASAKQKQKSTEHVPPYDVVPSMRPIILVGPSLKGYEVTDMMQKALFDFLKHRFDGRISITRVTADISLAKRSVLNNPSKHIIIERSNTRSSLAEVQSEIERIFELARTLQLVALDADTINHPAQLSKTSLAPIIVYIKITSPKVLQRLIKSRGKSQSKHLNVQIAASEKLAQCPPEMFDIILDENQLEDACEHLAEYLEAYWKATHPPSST

Binding result, binds:
B1, B2, B3, B4
